In assay [1] the test system is KPC-luc tumors. The assay is described as follows: Orthotopic KPC-luc pancreatic tumor model, intravital imaging (IVIS). The conditions noted are these: PEGPH20 4.5 mg/kg (~90 ug/mouse) i.v. day 7; shIDO-ST 5×10^6 cfu/mouse i.v. day 8 (alone: days 8 and 12); n=3. The assay is classed as in vivo, C57BL/6 mice. The procedure: To determine the effects of shIDO-ST and PEGPH20™, nine C57BL/6 mice were injected orthotopically (in the pancreas) with 5×10^5 KPC-luc cells. Three small groups (n=3) were created: shIDO-ST alone, PEGPH20™ alone, and shIDO-ST with PEGPH20™. The shIDO-ST alone group received shIDO-ST at a dose of 5×10^6 cfu/mouse through intravenous (i.v.) injection on days 8 and 12. PEGPH20™ alone group received PEGPH20™ at a dose of 4.5 mg/kg (˜90 ug/mouse) on day 7 through i.v. injection. The combination (PEGPH20™ with shIDO-ST) group received PEGPH20™ at 4.5 mg/kg on day 7 followed by treatment with shIDO-ST on day 8 at 5×10^6 cfu/mouse. Mice were imaged using an intravital imaging system (IVIS) at indicated time points after tumor cell implantation. […]
Titration of combination treatment with shIDO-ST and PEGPH20™ was performed to reduce the toxicity observed in initial experiment (FIG. 2). […] Photons emitted from mice imaged in FIG. 2 were quantitated using Living Image® software.
Due to the sensitivity of 7 day KPC-luc tumors to the combination PEGPH20™ and […] treatment (FIG. 2), treatment of implanted KPC-luc tumors was delayed to day 14. […] Doses (previously determined from titration studies described in FIG. 2) consisted of 45 ug of PEGPH20™ followed by 5×10^6 cfu/mouse of shIDO-ST or shScr-ST. […] Photons emitted from mice imaged in FIG. 4 were quantitated using Living Image® software. […]

Assay [2] deals with hyaluronan. In words: Hyaluronan staining of KPC-luc tumor sections. It is filed as in vivo, mice. Conditions: forty-eight hours after treatment; 14 day orthotopic tumors.
Assay [3] has as its system vessels within the tumor mass. The assay is described as follows: Anti-CD31 staining of vessels within the tumor mass. The assay is classed as in vivo, mice. Conditions: 14 day tumors, versus untreated (majority of closed vessels). From the text:
Sections from 14 day tumors of mice untreated or treated with PEGPH20 were stained with anti-CD31 antibody to locate cross sections of vessels within the tumor mass. FITC-conjugated secondary specific to CD31 primary and DAPI staining were visualized by fluorescence microscopy.

B1: PEGPH20™: pegylated recombinant human hyaluronidase PH-20 (Halozyme, Inc.) (protein, listed as Homo Sapiens)
chain: MGVLKFKHIFFRSFVKSSGVSQIVFTFLLIPCCLTLNFRAPPVIPNVPFLWAWNAPSEFCLGKFDEPLDMSLFSFIGSPRINATGQGVTIFYVDRLGYYPYIDSITGVTVNGGIPQKISLQDHLDKAKKDITFYMPVDNLGMAVIDWEEWRPTWARNWKPKDVYKNRSIELVQQQNVQLSLTEATEKAKQEFEKAGKDFLVETIKLGKLLRPNHLWGYYLFPDCYNHHYKKPGYNGSCFNVEIKRNDDLSWLWNESTALYPSIYLNTQQSPVAATLYVRNRVREAIRVSKIPDAKSPLPVFAYTRIVFTDQVLKFLSQDELVYTFGETVALGASGIVIWGTLSIMRSMKSCLLLDNYMETILNPYIINVTLAAKMCSQVLCQEQGVCIRKNWNSSDYLHLNPDNFAIQLEKGGKFTVRGKPTLEDLEQFSEKFYCSCYSTLSCKEKADVKDTDAVDVCIADGVCIDAFLKPPMETEEPQIFYNASPSTLSATMFIVSILFLIISSVASL
modifications: PEGylated
Consider B1, for which the “tumor growth by IVIS imaging” value in assay [1] is “euthanized due to significantly large tumors”. Moreover, the “hyaluronan in KPC-luc tumor tissue sections” value in assay [2] is “significant depletion of hyaluronan”. Further, the “open vessels in tumors (CD31 staining)” value in assay [3] is listed as “Many more open vessels”.

(Values after patent US11141492B2, “Anticancer combinations” (City of Hope, priority 2013, dated 2021).)
